1 substance from patent publication US10869937B2, “Polymer derivatives, and novel polymer derivative imaging probe using same” (Nippon Kayaku Kabushiki Kaisha, priority 2016, dated 2020) can be followed below.

The data set is described as follows: Average particle size measurement with single nanoparticle size analyzer IG-1000 (induced diffraction grating method). Format: physicochemical. Particulars: 1 mg/mL in ultrapure water, 25° C. As for the experimental part: The particle size (average particle size) of the nanoparticles according to the invention is measured by, for example, an induced diffraction grating method. An induced diffraction grating method is a method of: (1) irradiating a 1 or 2 mg/mL aqueous solution of the block copolymer of the present invention or a composition including the block copolymer with laser light, thereby forming diffraction gratings by dielectrophoresis; (2) stopping an external force that causes dielectrophoresis, measuring the annihilation rate of the diffraction gratings caused by diffusion, and (3) applying the annihilation rate to the Stokes-Einstein relational equation to obtain the particle size. For example, the particle size may be measured with a single nanoparticle size measuring apparatus, IG-1000, manufactured by Shimadzu Corp.
Measurement of the average particle sizes of the block copolymers of Synthesis Examples and Examples and compositions including those block copolymers was carried out using a single nanoparticle size analyzer, IG-1000, manufactured by Shimadzu Corp. (measurement temperature: 25° C., light intensity at t=0: 100 to 200). Regarding the sample for measuring the average particle size, a solution produced using ultrapure water to a block copolymer concentration of 1 mg/mL or 2 mg/mL and filtered through a 0.45 μm membrane filter, was used.

As for “7-ethyl-10-hydroxycamptothecin (EHC)-Bonded and ALEXA FLUOR (registered trademark) 594 Cadaverin (Alexa)-Bonded Product of Polyethylene Glycol (2 kDa)-Polyglutamic Acid (8.3 Polymerization Units) Block Copolymer [Example 3]”, the average particle size was determined as 10 nm.
